What was measured:
[1] = target: Pax6 GST-PD/HD (UniProt P63015 4-269); assay: EMSA; EMSA: 0.5-1 ng 5'-end-labelled probe, 2 ug poly(dI-dC), room temperature 10 min, 5% PAGE in 0.5x TBE; competitor 50 ng cold P6CON (~50:1); binding buffer, salt; conditions: protein: recombinant; tags: GST; label: 5'-end label (radioactive)
[2] = target: Pax6 GST-PD (UniProt P63015 4-130); assay: as above; conditions: protein: recombinant; tags: GST; label: 5'-end label (radioactive)
Pax6 GST-PD, sequence (P63015 4-130): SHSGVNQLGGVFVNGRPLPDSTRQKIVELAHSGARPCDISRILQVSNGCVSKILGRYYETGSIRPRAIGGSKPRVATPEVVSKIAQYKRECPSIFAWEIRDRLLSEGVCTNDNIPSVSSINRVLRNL

Pax6 GST-PD/HD, sequence (P63015 4-269): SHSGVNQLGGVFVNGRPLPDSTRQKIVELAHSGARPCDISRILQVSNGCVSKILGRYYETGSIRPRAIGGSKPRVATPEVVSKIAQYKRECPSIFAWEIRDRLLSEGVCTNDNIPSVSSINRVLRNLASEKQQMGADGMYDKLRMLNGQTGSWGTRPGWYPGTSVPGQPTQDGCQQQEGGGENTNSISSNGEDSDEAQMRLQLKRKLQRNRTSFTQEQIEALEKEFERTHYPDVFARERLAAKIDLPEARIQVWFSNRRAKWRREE

B1: P6CON (dsDNA)
DNA 1: GGATGCAATTTCACGCATGAGTGCCTCGAGGGATCCACGTCGA
DNA 2: TCGACGTGGATCCCTCGAGGCACTCATGCGTGAAATTGCATCC
binding result [1]: binds
binding result [2]: binds
